According to paper PMC8454712 (Biochemical Journal, 2021):

Target: Growth factor receptor-bound protein 2 (Grb2), HepG2 cells (human (endogenous in HepG2), UniProt P62993 1-217)
Experiment: co-IP

Growth factor receptor-bound protein 2 (Grb2), HepG2 cells, sequence (P62993 whole entry): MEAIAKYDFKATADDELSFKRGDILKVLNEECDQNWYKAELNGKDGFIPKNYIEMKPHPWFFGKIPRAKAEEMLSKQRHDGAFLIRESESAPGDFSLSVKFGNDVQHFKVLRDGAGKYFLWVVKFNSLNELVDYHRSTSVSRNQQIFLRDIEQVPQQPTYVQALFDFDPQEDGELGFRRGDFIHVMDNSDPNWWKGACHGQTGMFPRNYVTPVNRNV

B1: NADPH oxidase NOX4, HepG2 cells (natural protein, human (endogenous in HepG2), UniProt Q9NPH5 1-578, looked up)
chain: MAVSWRSWLANEGVKHLCLFIWLSMNVLLFWKTFLLYNQGPEYHYLHQMLGLGLCLSRASASVLNLNCSLILLPMCRTLLAYLRGSQKVPSRRTRRLLDKSRTFHITCGVTICIFSGVHVAAHLVNALNFSVNYSEDFVELNAARYRDEDPRKLLFTTVPGLTGVCMVVVLFLMITASTYAIRVSNYDIFWYTHNLFFVFYMLLTLHVSGGLLKYQTNLDTHPPGCISLNRTSSQNISLPEYFSEHFHEPFPEGFSKPAEFTQHKFVKICMEEPRFQANFPQTWLWISGPLCLYCAERLYRYIRSNKPVTIISVMSHPSDVMEIRMVKENFKARPGQYITLHCPSVSALENHPFTLTMCPTETKATFGVHLKIVGDWTERFRDLLLPPSSQDSEILPFIQSRNYPKLYIDGPFGSPFEESLNYEVSLCVAGGIGVTPFASILNTLLDDWKPYKLRRLYFIWVCRDIQSFRWFADLLCMLHNKFWQENRPDYVNIQLYLSQTDGIQKIIGEKYHALNSRLFIGRPRWKLLFDEIAKYNRGKTVGVFCCGPNSLSKTLHKLSNQNNSYGTRFEYNKESFS
Q: For B1, which “fold change of the co-precipitated interaction, T2D condition against control” value is on record?
A: The value was 1.35 fold.
